One data set has as its target T1, ZRANB2-F2 (untagged) (Homo sapiens, UniProt O95218 O95218:65-95).
T1 chain: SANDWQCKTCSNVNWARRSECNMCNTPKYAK
The data set can be described thus: 15N-HSQC titration, 1:1 complex. How it is done:
For RNA titrations, deprotected RNA oligonucleotides i.e., having the sequence AGGUAA, […] (SEQ ID NO: 25), or […] (SEQ ID NO: 26) and the appropriate protein were dialyzed into 10 mM Mops (pH 7.2) and 0.5 mM DTT. Protein and RNA concentrations were calculated from A₂₈₀ and A₂₆₀, respectively. Final concentrations of complexes after titrations were typically approximately 0.1-0.5 mM. Assignments of the F2:RNA complex (1:1 or 1:1.2 molar ratio) were made at 25° C. as described above.
The inventors then carried out chemical-shift perturbation experiments, titrating short (6 or 10 nt) RNA oligonucleotides containing a single AGGUAA motif into ¹⁵N-labeled F2.

In data set [1] the target is T2, ZRANB2-F12 (Homo sapiens, UniProt O95218 O95218:1-95). Put plainly: EMSA; dsRNA control. To be noted: tags: GST removed for FA, gel shift and SPR; label: 32P. How it is done:
(§1) Gel Shift assays e.g., FIGS. 1B, 32A, were carried out using standard protocols. In brief, oligonucleotides were 5′ end-labelled with T4 polynucleotide kinase and annealed. Binding reactions were set up in a volume of 30 μL and contained a constant concentration of ³²P-labeled probe (0.1 pmol) and increasing concentrations of F12, in a buffer consisting of 10 mM Mops (pH 7.2), 50 mM KCl, 5 mM MgCl₂, 1 mM DTT, 0.03 mg/mL heparin, and 5% glycerol. Binding reactions were set up on ice and incubated at 4° C. for 30 min, after which time 15 μL of each sample was loaded onto a prerun 8% native polyacrylamide gel made up in 0.5× Tris-borate buffer, and electrophoresed (250V, 1 h, 4° C.). The oligonucleotide sequence used for gel shift experiments was […] (SEQ ID NO: 28); the site was mutated by changing the central GGU to CUG.
(§2) To determine whether the AGGUAA motif was sufficient for binding, the binding of the double finger construct F12 to a 17-nt RNA oligonucleotide containing a single AGGUAA motif was tested as described in Section 1.4 above with dsDNA, ssDNA, and dsRNA also tested as controls. […] Mutation of the central GGU, which is the most highly-conserved element in the SELEX consensus to CUG, abrogated the interaction, showing that the interaction is sequence specific (FIG. 1B).
In general terms: A gel shift assay detects complexes by their altered migration in electrophoresis.

Data set [2] has as its target T2, ZRANB2-F12. The data set can be described thus: FP; higher affinity than shorter spacings; value in figure only. Conditions: tags: GST removed for FA, gel shift and SPR; label: 5'-fluorescein. How it is done:
Fluorescence Anisotropy titrations e.g., as shown in FIGS. 1D-F, 8 and 35, were carried out using standard protocols. In brief, 5′-Fluorescein-labeled RNA oligonucleotides were quantified by A₂₆₀, correcting for fluorescein absorbance by using A₄₉₃. For single-site experiments, the sequence […] (SEQ ID NO: 28), or single base mutants thereof, was used. For double-site experiments, two AGGUAA sites were separated by different length sequences as indicated, and the total oligonucleotide lengths were kept constant by the symmetrical addition of adenines to each end. […] Protein was titrated into this starting solution and anisotropy values measured on a Cary Eclipse fluorescence spectrophotometer fitted with manual polarizer and long-pass filters set to 475 and 515 nm for excitation and emission, respectively. […] Association constants were determined by nonlinear least squares regression analysis using a 1:1 binding model.
The importance of the spacing between AGGUAA motifs was assessed by measuring binding of F12 to double sites that were separated by −1 to 8 nt (where −1 denotes the sequence […] SEQ ID NO: 33; FIG. 1E, lanes 5-10).

Data set [3] addresses T2, ZRANB2-F12. Put plainly: EMSA; dsDNA control. Conditions: tags: GST removed for FA, gel shift and SPR; label: 32P. How it is done:
as §1, §2

Data set [4] concerns the target T2, ZRANB2-F12. The data set can be described thus: EMSA; interaction abrogated. Conditions: tags: GST removed for FA, gel shift and SPR; label: 32P. How it is done: as §1, §2

B1: 10-nt AGGUAA RNA (ssRNA)
RNA: CCAGGUAAAG
For B1, in the data set with ZRANB2-F2 (untagged), the binding result is listed as “binds”.

B2: 17-nt site as dsRNA (dsRNA)
RNA 1: GCAACCAGGUAAAGUCU
RNA 2: AGACUUUACCUGGUUGC
In the case of B2, in the data set with ZRANB2-F12 [1], the binding result was “no binding”.

B3: double site spacing 5 (penta-adenine) (ssRNA)
RNA: AGGUAAAAAAAAGGUAA
modifications: [none]
As to B3, the binding result with ZRANB2-F12 [2] is “binds”.

B4: 17-nt site as dsDNA (dsDNA)
DNA 1: GCAACCAGGTAAAGTCT
DNA 2: AGACTTTACCTGGTTGC
modifications: [none]
As to B4, the binding result in the data set with ZRANB2-F12 [3] is recorded as “no binding”.

B5: 17-nt CUG mutant ssRNA (ssRNA)
RNA: GCAACCACUGAAAGUCU
modifications: [none]
As for B5, in the data set with ZRANB2-F12 [4], the binding result is reported as “no binding”.

These data come from US20130022590, “Compositions Comprising Zinc Finger Domains and Uses Therefor” (published 2013).
